Results published in PMC9508819, “Rbp95 binds to 25S rRNA helix H95 and cooperates with the Npa1 complex during early pre-60S particle maturation”.

How the values were obtained:
[1] = target: T1, Rbp95 183-end (Saccharomyces cerevisiae, UniProt P25617 183-290); assay: EMSA; 100- or 500-fold excess; not sufficient for binding; EMSA: 25 mM Tris-HCl pH 7.5, 75 mM NaCl, 2.5 mM MgCl2, 3.5% glycerol, 0.025% Tween 20, 0.5 mM DTT, 5 nM Cy5-RNA, 30 min at RT; 4-20% TBE gel; settings: protein: recombinant; tags: N-terminal His6; label: 5'-Cy5; hairpin
T1 sequence: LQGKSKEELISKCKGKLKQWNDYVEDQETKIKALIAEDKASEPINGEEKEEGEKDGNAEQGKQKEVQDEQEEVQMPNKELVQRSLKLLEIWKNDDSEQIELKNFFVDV

[2] = target: T2, Rbp95 1-85 (Saccharomyces cerevisiae, UniProt P25617 1-85); assay: EMSA; 100- or 500-fold excess; strong shift, slightly more protein needed than full length; EMSA: 25 mM Tris-HCl pH 7.5, 75 mM NaCl, 2.5 mM MgCl2, 3.5% glycerol, 0.025% Tween 20, 0.5 mM DTT, 5 nM Cy5-RNA, 30 min at RT; 4-20% TBE gel; settings: protein: recombinant; tags: N-terminal His6; label: 5'-Cy5; hairpin
T2 sequence: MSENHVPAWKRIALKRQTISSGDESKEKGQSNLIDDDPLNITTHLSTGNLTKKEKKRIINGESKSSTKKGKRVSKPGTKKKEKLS

[3] = target: T3, Rbp95 full length (Saccharomyces cerevisiae, UniProt P25617 1-290); assay: EMSA; 5 nM RNA; shift starts at 1.5-fold excess of Rbp95; EMSA: 25 mM Tris-HCl pH 7.5, 75 mM NaCl, 2.5 mM MgCl2, 3.5% glycerol, 0.025% Tween 20, 0.5 mM DTT, 5 nM Cy5-RNA, 30 min at RT; 4-20% TBE gel; settings: protein: recombinant; tags: N-terminal His6; label: 5'-Cy5; hairpin
T3 sequence: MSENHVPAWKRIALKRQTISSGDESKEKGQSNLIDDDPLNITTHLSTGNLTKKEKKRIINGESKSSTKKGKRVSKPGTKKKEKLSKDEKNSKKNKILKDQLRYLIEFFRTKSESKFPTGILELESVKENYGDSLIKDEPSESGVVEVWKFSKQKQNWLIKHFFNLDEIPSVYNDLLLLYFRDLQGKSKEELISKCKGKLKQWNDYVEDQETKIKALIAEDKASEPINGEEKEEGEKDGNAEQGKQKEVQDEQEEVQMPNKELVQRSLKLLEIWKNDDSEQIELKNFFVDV

[4] = target: T3, Rbp95 full length; assay: competition; 20-100-fold excess over Cy5-H95; reverts shift; EMSA: 25 mM Tris-HCl pH 7.5, 75 mM NaCl, 2.5 mM MgCl2, 3.5% glycerol, 0.025% Tween 20, 0.5 mM DTT, 5 nM Cy5-RNA, 30 min at RT; 4-20% TBE gel; settings: protein: recombinant; tags: N-terminal His6; hairpin
[5] = target: T3, Rbp95 full length; assay: EMSA; 5 nM RNA; shift starts at 1.5-fold excess; similar to H95; EMSA: 25 mM Tris-HCl pH 7.5, 75 mM NaCl, 2.5 mM MgCl2, 3.5% glycerol, 0.025% Tween 20, 0.5 mM DTT, 5 nM Cy5-RNA, 30 min at RT; 4-20% TBE gel; settings: protein: recombinant; tags: N-terminal His6; label: 5'-Cy5; hairpin

AAAGGGAAUUGAACUUAGUACGAGAGGAACAGUUCAUUUCCC (structured_RNA) [helix H95 (25S rRNA)]: no binding [1]; binds [2]; binds [3].

AAAGGGAAUUGAACUUAGUACGAGAGGAACAGUUCAUUUCCC (structured_RNA) [helix H95 unlabeled competitor]: binds [4].

AAAGGGCGUCAGGGUUGAUAUGAUGCCCUGACGCCC (structured_RNA) [helix H45 (25S rRNA)]: binds [5].
